Data published in patent US20060148057A1, “Thioredoxin mutants and uses thereof” (priority 2002, published 2006).

T1: ASK1 (Homo sapiens, UniProt Q99683)
T1 construct: wild type ASK1 (ASK1-WT, aa 1-1375); expressed in transfected cells; host or cells: BAEC
T1 sequence (Q99683 1-1374): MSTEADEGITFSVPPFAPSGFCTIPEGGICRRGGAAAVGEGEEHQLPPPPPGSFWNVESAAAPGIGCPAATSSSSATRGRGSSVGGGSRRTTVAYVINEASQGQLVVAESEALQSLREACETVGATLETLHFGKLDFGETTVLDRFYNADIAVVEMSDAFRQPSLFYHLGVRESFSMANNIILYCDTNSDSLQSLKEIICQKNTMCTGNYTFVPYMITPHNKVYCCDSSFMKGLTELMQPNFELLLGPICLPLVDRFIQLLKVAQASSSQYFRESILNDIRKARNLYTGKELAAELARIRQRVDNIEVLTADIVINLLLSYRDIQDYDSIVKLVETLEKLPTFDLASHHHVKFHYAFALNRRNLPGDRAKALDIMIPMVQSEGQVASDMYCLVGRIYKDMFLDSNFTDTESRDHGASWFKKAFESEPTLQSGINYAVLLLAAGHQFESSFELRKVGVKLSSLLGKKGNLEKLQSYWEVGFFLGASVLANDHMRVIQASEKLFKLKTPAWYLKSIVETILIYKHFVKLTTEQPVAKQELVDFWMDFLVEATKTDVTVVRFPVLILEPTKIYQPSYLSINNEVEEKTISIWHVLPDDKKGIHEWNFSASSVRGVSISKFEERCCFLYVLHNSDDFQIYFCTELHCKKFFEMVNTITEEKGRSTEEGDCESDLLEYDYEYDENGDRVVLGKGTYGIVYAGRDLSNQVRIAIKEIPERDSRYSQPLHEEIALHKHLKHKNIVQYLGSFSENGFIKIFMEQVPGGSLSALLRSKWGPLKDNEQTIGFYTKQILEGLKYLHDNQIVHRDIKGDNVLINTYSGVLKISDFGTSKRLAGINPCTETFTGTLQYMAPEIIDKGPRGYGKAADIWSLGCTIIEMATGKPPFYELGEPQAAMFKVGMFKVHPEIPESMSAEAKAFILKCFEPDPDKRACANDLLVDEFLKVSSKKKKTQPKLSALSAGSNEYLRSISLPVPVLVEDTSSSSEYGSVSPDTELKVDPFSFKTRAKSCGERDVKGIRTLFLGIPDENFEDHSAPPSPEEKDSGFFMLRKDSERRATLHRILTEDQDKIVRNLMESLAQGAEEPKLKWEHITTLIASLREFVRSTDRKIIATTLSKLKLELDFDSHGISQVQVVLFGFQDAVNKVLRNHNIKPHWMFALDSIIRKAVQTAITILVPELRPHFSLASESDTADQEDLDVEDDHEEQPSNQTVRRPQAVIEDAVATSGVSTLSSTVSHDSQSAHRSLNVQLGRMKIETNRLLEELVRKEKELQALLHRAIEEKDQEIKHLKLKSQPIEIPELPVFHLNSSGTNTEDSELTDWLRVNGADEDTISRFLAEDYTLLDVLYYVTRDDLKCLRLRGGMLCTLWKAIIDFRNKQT


What was measured:
ASK1 = biological target: T1, ASK1; assay: GST-Trx pull-down assay; assay type: binding; settings: for ASK1 bound to GST-Trx: in the presence of 1 mM DTT; for association of GST-Trx with ASK1: in the presence of 1 mM H2O2
Description: GST-Trx pull-down assay: GST fusion protein preparation and GST pull-down assay were performed as described previously. […] Briefly, GST-Trx fusion proteins expressed in Escherichia coli XL-1 blue were affinity purified on glutathione-Sepharose beads (Pharmacia). 400 μg of cell lysates expressing HA-tagged ASK1 were incubated with 10 μg of GST-Trx bound to glutathione-Sepharose in the lysis buffer containing either 1 mM DTT or 1 mM H2O2. The beads were washed 4 times with the lysis buffer before the addition of boiling Laemmli sample buffer. Bound ASK1 proteins were resolved on SDS-PAGE and detected by Western blot with anti-HA.
Hydrogen peroxide dissociates wild type Trx but not Trx-C32S or Trx-C35S from ASK1 in vitro. Association of ASK1 with various Trx proteins - Trx-WT, Trx-CS, Trx-C32S or Trx-C35S in the presence of 1 mM DTT or H202 in an in vitro GST pull-down assay. Bacteria-expressed GST-Trx proteins were purified and protein concentrations were determined by SDS-PAGE (FIG. 2A). […] ASK1 bound to GST-Trx was determined by Western blot with anti-HA.

JNK = assay: ASK1-induced JNK activation in BAEC, in vitro kinase assay with GST-c-Jun; assay type: cell-based, Bovine; settings: co-expression with ASK1 1:1, 24 h post-transfection
Description: J Immunol. 159:3508-18 (1997)) using GST-MKK4 and GST-c-Jun (1-80) fusion protein as a substrate, respectively. Briefly, total 400 μg cell lysates were immunoprecipitated with 5 μg of antibody against ASK1 or JNK1 (Santa Cruz). The immunoprecipitates were mixed with 10 μg GST-MKK4 or GST-c-Jun (1-80) suspended in the kinase buffer (20 mM Hepes, pH 7.6, 20 mM MgCl2, 25 mM β-glycerophosphate, 100 μM sodium orthovanadate, 2 mM DTT, 20 μM ATP) containing 1 μl (10 μCi) of [γ-32P] ATP. The kinase assay was performed at 25° C. for 30 min. The reaction was terminated by the addition of Laemmli sample buffer and the phosphorylated GST-MKK4 or GST-c-Jun (1-80) was visualized by autoradiography.
Trx-C32S and Trx-C35S (but not Trx-WT) inhibits ASK1-mediated EC apoptosis induced by TNF. To determine the biological consequence of Trx-induced ASK1 ubiquitination/degradation, the effects of Trx on ASK1-induced apoptosis were examined. ASK1-induced activation of JNK and caspase 3 has been implicated in cell d e a t h (Hatai T et al. Execution of apoptosis signal-regulating kinase 1 (ASK1) induced apoptosis by the mitochondria-dependent caspase activation. J Biol Chem.275:26576-81 (2000); Tournier C et al. Requirement of JNK for stress-induced activation of the cytochrome c- mediated death pathway. Science. 288:870-4 (2000)). First, the effects of Trx on JNK activation induced by ASK1 were examined. BAEC were co-transfected with ASK1 and Trx expression constructs as indicated, and JNK activity was measured by an in vitro kinase assay using GST-c-Jun as a substrate. […] Co-expression of Trx-WT, Trx-C32S and Trx-C35S (but not Trx-CS) inhibited ASK1-induced JNK activity (FIG. 6A top panel). Western blot with anti-Flag indicated equal amounts of Trx proteins were expressed (FIG. 6A bottom panel). Similar results were obtained in human EC (HUVEC).

Row | Molecule | ASK1 bound to GST-Trx (ASK1) | association of GST-Trx with ASK1 (ASK1) | ASK1-induced JNK activity (JNK)
1 | thioredoxin (protein, Flag tag or GST fusion, Flag-tagged or GST fusion) MVKQIESKTAFQEALDAAGDKLVVVDFSATWCGPCKMIKPFFHSLSEKYSNVIFLEVDVDDCQDVASECEVKCMPTFQFFKKGQKVGEFSGANKEKLEATINELV | bound | disrupted the association | inhibited
2 | Trx-C32S: C32S single mutant of Trx at the catalytic site, SEQ ID NO:2 (protein) MVKQIESKTAFQEALDAAGDKLVVVDFSATWSGPCKMIKPFFHSLSEKYSNVIFLEVDVDDCQDVASECEVKCMPTFQFFKKGQKVGEFSGANKEKLEATINELV | bound | retained their associations with ASK1 | inhibited
3 | Trx-C35S: C35S single mutant of Trx at the catalytic site, SEQ ID NO:3 (protein) MVKQIESKTAFQEALDAAGDKLVVVDFSATWCGPSKMIKPFFHSLSEKYSNVIFLEVDVDDCQDVASECEVKCMPTFQFFKKGQKVGEFSGANKEKLEATINELV | bound | retained their associations with ASK1 | inhibited
